# Experimental data: the RNAGym collection of RNA variant scans (doi:10.1021/acssynbio.7b00057)
# B1: Pistol ribozyme (parent)
# chain: GGGUCGUUGUUCCAUAAUCGCGUGGAUAUGGCACGCAAGUUUCUACCGGGCACCGUAAAUGUCCGACUGGAGCCGUUCGGGCGGCUAUAAACAGACCUCAGGCCCGAAGCGUGGCGGCACCUGCCGCCGGUGGUAAAAAAGAUCGGAAGAGCACACGUCU
# Variants of: B1
# Experiment: aptazyme ON/OFF ratio, guanine; higher = stronger switching; co-transcriptional cleavage with and without guanine
row,Variant,aptazyme ON/OFF ratio
1,GGGUCGCGCCCCGAUAAUCGCGUGGAUAUGGCACGCAAGUUUCUACCGGGCACCGUAAAUGUCCGACUGGAGCCGUUCGGGCGGCUAUAAACAGACCUCAGGCCCGAAGCGUGGCGGCACCUGCCGCCGGUGGUAAAAAAGAUCGGAAGAGCACACGUCU [U7C U8G G9C U10C U11C C13G],1.03
2,GGGUCGCGCCCCUAUAAUCGCGUGGAUAUGGCACGCAAGUUUCUACCGGGCACCGUAAAUGUCCGACUGGAGCCGUUCGGGCGGCUAUAAACAGACCUCAGGCCCGAAGCGUGGCGGCACCUGCCGCCGGUGGUAAAAAAGAUCGGAAGAGCACACGUCU [U7C U8G G9C U10C U11C C13U],1.02
3,GGGUCGCGCGUCCAUAAUCGCGUGGAUAUGGCACGCAAGUUUCUACCGGGCACCGUAAAUGUCCGACUGGAGCCGUUCGGGCGGCUAUAAACAGACCUCAGGCCCGAAGCGUGGCGGCACCUGCCGCCGGUGGUAAAAAAGAUCGGAAGAGCACACGUCU [U7C U8G G9C U10G],1.47
4,GGGUCGCGCCCUCAUAAUCGCGUGGAUAUGGCACGCAAGUUUCUACCGGGCACCGUAAAUGUCCGACUGGAGCCGUUCGGGCGGCUAUAAACAGACCUCAGGCCCGAAGCGUGGCGGCACCUGCCGCCGGUGGUAAAAAAGAUCGGAAGAGCACACGUCU [U7C U8G G9C U10C U11C C12U],1.04
5,GGGUCGCGCCCACAUAAUCGCGUGGAUAUGGCACGCAAGUUUCUACCGGGCACCGUAAAUGUCCGACUGGAGCCGUUCGGGCGGCUAUAAACAGACCUCAGGCCCGAAGCGUGGCGGCACCUGCCGCCGGUGGUAAAAAAGAUCGGAAGAGCACACGUCU [U7C U8G G9C U10C U11C C12A],1.04
6,GGGUCGCGCCCGCAUAAUCGCGUGGAUAUGGCACGCAAGUUUCUACCGGGCACCGUAAAUGUCCGACUGGAGCCGUUCGGGCGGCUAUAAACAGACCUCAGGCCCGAAGCGUGGCGGCACCUGCCGCCGGUGGUAAAAAAGAUCGGAAGAGCACACGUCU [U7C U8G G9C U10C U11C C12G],1.05
7,GGGUCGCGCCCUUAUAAUCGCGUGGAUAUGGCACGCAAGUUUCUACCGGGCACCGUAAAUGUCCGACUGGAGCCGUUCGGGCGGCUAUAAACAGACCUCAGGCCCGAAGCGUGGCGGCACCUGCCGCCGGUGGUAAAAAAGAUCGGAAGAGCACACGUCU [U7C U8G G9C U10C U11C C12U C13U],1.03
8,GGGUCGCGCCCUAAUAAUCGCGUGGAUAUGGCACGCAAGUUUCUACCGGGCACCGUAAAUGUCCGACUGGAGCCGUUCGGGCGGCUAUAAACAGACCUCAGGCCCGAAGCGUGGCGGCACCUGCCGCCGGUGGUAAAAAAGAUCGGAAGAGCACACGUCU [U7C U8G G9C U10C U11C C12U C13A],1.04
9,GGGUCGCGCCCUGAUAAUCGCGUGGAUAUGGCACGCAAGUUUCUACCGGGCACCGUAAAUGUCCGACUGGAGCCGUUCGGGCGGCUAUAAACAGACCUCAGGCCCGAAGCGUGGCGGCACCUGCCGCCGGUGGUAAAAAAGAUCGGAAGAGCACACGUCU [U7C U8G G9C U10C U11C C12U C13G],1.04
10,GGGUCGCGCCGCAAUAAUCGCGUGGAUAUGGCACGCAAGUUUCUACCGGGCACCGUAAAUGUCCGACUGGAGCCGUUCGGGCGGCUAUAAACAGACCUCAGGCCCGAAGCGUGGCGGCACCUGCCGCCGGUGGUAAAAAAGAUCGGAAGAGCACACGUCU [U7C U8G G9C U10C U11G C13A],1.11
11,GGGUCGCGCCGCGAUAAUCGCGUGGAUAUGGCACGCAAGUUUCUACCGGGCACCGUAAAUGUCCGACUGGAGCCGUUCGGGCGGCUAUAAACAGACCUCAGGCCCGAAGCGUGGCGGCACCUGCCGCCGGUGGUAAAAAAGAUCGGAAGAGCACACGUCU [U7C U8G G9C U10C U11G C13G],1.11
12,GGGUCGCGCCGCUAUAAUCGCGUGGAUAUGGCACGCAAGUUUCUACCGGGCACCGUAAAUGUCCGACUGGAGCCGUUCGGGCGGCUAUAAACAGACCUCAGGCCCGAAGCGUGGCGGCACCUGCCGCCGGUGGUAAAAAAGAUCGGAAGAGCACACGUCU [U7C U8G G9C U10C U11G C13U],1.19
13,GGGUCGCGCCGGUAUAAUCGCGUGGAUAUGGCACGCAAGUUUCUACCGGGCACCGUAAAUGUCCGACUGGAGCCGUUCGGGCGGCUAUAAACAGACCUCAGGCCCGAAGCGUGGCGGCACCUGCCGCCGGUGGUAAAAAAGAUCGGAAGAGCACACGUCU [U7C U8G G9C U10C U11G C12G C13U],1.05
14,GGGUCGCGCCGGAAUAAUCGCGUGGAUAUGGCACGCAAGUUUCUACCGGGCACCGUAAAUGUCCGACUGGAGCCGUUCGGGCGGCUAUAAACAGACCUCAGGCCCGAAGCGUGGCGGCACCUGCCGCCGGUGGUAAAAAAGAUCGGAAGAGCACACGUCU [U7C U8G G9C U10C U11G C12G C13A],1.12
15,GGGUCGCGCCGGGAUAAUCGCGUGGAUAUGGCACGCAAGUUUCUACCGGGCACCGUAAAUGUCCGACUGGAGCCGUUCGGGCGGCUAUAAACAGACCUCAGGCCCGAAGCGUGGCGGCACCUGCCGCCGGUGGUAAAAAAGAUCGGAAGAGCACACGUCU [U7C U8G G9C U10C U11G C12G C13G],1.09
16,GGGUCGCGCCCAAAUAAUCGCGUGGAUAUGGCACGCAAGUUUCUACCGGGCACCGUAAAUGUCCGACUGGAGCCGUUCGGGCGGCUAUAAACAGACCUCAGGCCCGAAGCGUGGCGGCACCUGCCGCCGGUGGUAAAAAAGAUCGGAAGAGCACACGUCU [U7C U8G G9C U10C U11C C12A C13A],1.03
17,GGGUCGCGCCCAGAUAAUCGCGUGGAUAUGGCACGCAAGUUUCUACCGGGCACCGUAAAUGUCCGACUGGAGCCGUUCGGGCGGCUAUAAACAGACCUCAGGCCCGAAGCGUGGCGGCACCUGCCGCCGGUGGUAAAAAAGAUCGGAAGAGCACACGUCU [U7C U8G G9C U10C U11C C12A C13G],1.04
18,GGGUCGCGCCCAUAUAAUCGCGUGGAUAUGGCACGCAAGUUUCUACCGGGCACCGUAAAUGUCCGACUGGAGCCGUUCGGGCGGCUAUAAACAGACCUCAGGCCCGAAGCGUGGCGGCACCUGCCGCCGGUGGUAAAAAAGAUCGGAAGAGCACACGUCU [U7C U8G G9C U10C U11C C12A C13U],1.02
